Measurements as given in paper PMC4987290 (The Journal of Cell Biology, 2016).

Tests used:
Myo1E (myosin 1E) = Myo1E (myosin 1E) (UniProt Q12965); assay: reciprocal co-IP of endogenous proteins, immunoblot; conditions: sites S202
recombinant SH3P2 = target: T1, recombinant SH3P2 (human, UniProt Q92882 1-214); assay: pull-down
T1 sequence (looked up): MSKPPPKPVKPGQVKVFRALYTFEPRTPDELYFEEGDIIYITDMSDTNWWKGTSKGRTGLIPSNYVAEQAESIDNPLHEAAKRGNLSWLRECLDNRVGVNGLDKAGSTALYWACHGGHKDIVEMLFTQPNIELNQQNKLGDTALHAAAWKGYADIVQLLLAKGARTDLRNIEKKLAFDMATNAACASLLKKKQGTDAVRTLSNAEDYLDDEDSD

## SH3P2 (from UniProt Q92882) 10 µM PD184352, 4 h
Myo1E (myosin 1E); reference: untreated cells
  other: % of lysate Myo1E associated with SH3P2: stronger; reference 6.1 ± 2.1

## SH3P2 (from UniProt Q92882) 10% FBS, 10 min
Myo1E (myosin 1E); reference: serum-deprived cells
  other: % of lysate Myo1E associated with SH3P2: weaker; reference 78.4 ± 6.8

B1: GST-Myo1E(SH3) (domain or fragment, human, UniProt Q12965 1039-1108, looked up)
chain: AGGRPKPQPKPKPQVPQCKALYAYDAQDTDELSFNANDIIDIIKEDPSGWWTGRLRGKQGLFPNNYVTKI
Recombinant SH3P2
  binding result: binds
